From US20130202646A1, “COMPOSITIONS AND METHODS FOR MODULATING AUTOPHAGY” (SAN DIEGO STATE UNIVERSITY (SDSU) FOUNDATION, priority 2010, published 2013)

B1: Atg5^K130R: dominant negative point mutant of Atg5 delivered by transient transfection in HL-1 cells (protein, UniProt Q9H1Y0 1-275, looked up, variant K130R)
Autophagy protein 5: MTDDKDVLRDVWFGRIPTCFTLYQDEITEREAEPYYLLLPRVSYLTLVTDKVKKHFQKVMRQEDISEIWFEYEGTPLKWHYPIGLLFDLLASSSALPWNITVHFKSFPEKDLLHCPSKDAIEAHFMSCMREADALKHKSQVINEMQKKDHKQLWMGLQNDRFDQFWAINRKLMEYPAEENGFRYIPFRIYQTTTERPFIQKLFRPVAADGQLHTLGDLLKEVCPSAIDPEDGEKKNQVMIHGIEPMLETPLQWLSEHLSYPDNFLHISIIPQPTD
modifications: mCherry fusion
notes: dominant negative point mutant of Atg5 delivered by transient transfection in HL-1 cells
B2: Tat-Atg5^K130R: Atg5^K130R expressed as a fusion protein with the protein transduction domain derived from HIV Tat; cell-permeable dominant negative inhibitor of autophagy (protein)
chain: MRGSHHHHHHGMASMTGGQQMGRDLYDDDDKDRWGSKLGYGRKKRRQRRRGGSTMSGYPYDVPDYAGSMAGTMTDDKDVLRDVWFGRIPTCFTLYQDEITEREAEPYYLLLPRVSYLTLVTDKVKKHFQKVMRQEDVSEIWFEYEGTPLKWHYPIGLLFDLLASSSALPWNITVHFKSFPEKDLLHCPSKDAVEAHFMSCMREADALKHKSQVINEMQKKDHKQLWMGLQNDRFDQFWAINRKLMEYPPEENGFRYIPFRIYQTTTERPFIQKLFRPVAADGQLHTLGDLLREVCPSAVAPEDGEKRSQVMIHGIEPMLETPLQWLSEHLSYPDNFLHISIVPQPTD
modifications: synthetic peptide or nucleic acid
B3: Tat-Beclin1: cell-permeable recombinant Tat fusion of rat Beclin 1; stimulant or activator of autophagy (protein)
chain: MRGSHHHHHHGMASMTGGQQMGRDLYDDDDKDRWGSKLGYGRKKRRQRRRGGSTMSGYPYDVPDYAGSMAGTGLEMEGSKASSSTMQVSFVCQRCSQPLKLDTSFKILDRVTIQELTAPLLTTAQAKPGESQEEEANSGEEPFIETRQDGVSRRFIPPARMMSTESANSFTLIGEASDGGTMENLSRRLKVTGDLFDIMSGQTDVDHPLCEECTDTLLDQLDTQLNVTENECQNYKRCLEMLEQMNEGDSEQLQRELKELALEEERLIQELEDVEKNRKVVAENLEKVQAEAERLDQEEAQYQREYSEFKRQQLELDDELKSVENQMRYAQMQLDKLKKTNVFNATFHIWHSGQFGTINNFRLGRLPSAPVEWNEINAAWGQTVLLLHALANKMGLKFQRYRLVPYGNHSYLESLTDKSKELPLYCSGGLRFFWDNKFDHAMVAFLDCVQQFKEEVEKGETRFCLPYRMDVEKGKIEDTGGSGGSYSIKTQFNSEEQWTKALKFMLTNLKWGLAWVSSQFYNK

Experiments:
HL-1 cells [1] = experiment: Autophagy scored by intracellular distribution of GFP-LC3 (fluorescence microscopy) in HL-1 cells; type: cell-based, murine; conditions: for modulation of autophagy: HL-1 cells transfected with LC3GFP, treated with Tat protein (FIG. 18)
HL-1 cells [2] = experiment: Cell death by LDH release after simulated ischemia/reperfusion (sI/R) in HL-1 cells; type: cell-based, murine
Protocol: Cells of the murine atrial-derived cardiac cell line HL-1^16 were plated in gelatin/fibronectin-coated culture vessels and maintained in Claycomb medium^16 (JRH Biosciences, Lenexa, Kans.) supplemented with 10% fetal bovine serum, 0.1 mm norepinephrine, 2 mm […], 100 U·mL^-1 penicillin, 100 U·mL^-1 streptomycin, and 0.25 μg·mL^-1 amphotericin B. Cells were plated in 14-mm diameter glass bottom microwell dishes (MatTek), and ischemia was introduced by a buffer exchange to ischemia-mimetic solution (in mM: 20deoxyglucose, 125 NaCl, 8 KCl, 1.2 KH2PO4, 1.25 MgSO4, 1.2 CaCl2, 6.25 NaHCO2, 5 sodium lactate, 20 HEPES, pH 6.6) and placing the dishes in hypoxic pouches (GasPakTM EZ, BD Biosciences) equilibrated with 95% N2, 5% CO2. After 2 hr of simulated ischemia, reperfusion was initiated by a buffer exchange to normoxic MKH buffer and incubation at 95% room air, 5% CO2. […] Protein content and LDH activity were determined according to El-Ani et al.^20. Briefly, 25 μl supernatants from 35 mm dishes were transferred into wells of a 96-well plate, and the LDH activities were determined with an LDH-L kit (Sigma), according to the manufacturer. The product of the enzyme was measured spectrophotometrically at 30° C. at a wavelength of 340 nm as described previously^21. […]

adult rat cardiomyocytes [3] = experiment: Autophagy (GFP-LC3 puncta) in adult rat cardiomyocytes; type: cell-based; conditions: Tat protein 30 min before CCPA
[4] = tested on: isolated perfused rat hearts; experiment: Langendorff global ischemia/reperfusion injury in isolated perfused rat hearts (CK release, TTC infarct size, hemodynamics)
[5] = tested on: isolated perfused rat hearts; experiment: Autophagy in isolated perfused rat hearts (LC3-II/LC3-I Western blot, cadaverine dye binding); conditions: Tat protein approximately 200 nM before SUL
adult rat cardiomyocytes [6] = tested on: adult rat cardiomyocytes
HL-1 cells [7] = experiment: Protection in cell culture by recombinant Tat-Beclin1; type: cell-based

Row | Molecule | autophagy (HL-1 cells [1]; transient transfection, co-transfected with GFP-LC3 (FIG. 6)) | effect on autophagy in the second window of protection (HL-1 cells [1]; with CCPA 10 min, washout, 20-24 hr later) | effect on cytoprotection by CCPA (LDH release) (HL-1 cells [2]; inhibitor plus CCPA, then sI/R (2 hr sI, 3 hr R)) | effect on cytoprotection by CCPA in the second window of protection (LDH release) (HL-1 cells [2]; with CCPA 10 min, washout, sI/R 20-24 hr later) | modulation of autophagy (HL-1 cells [1]) | effect on autophagy (adult rat cardiomyocytes [3]) | effect on protection by sulfaphenazole given at reperfusion (infarct size) ([4]; FIG. 17, 3 hearts per condition) | infarct size ([4]; absence of SUL, vehicle control 38.5%, p=NS) [%] | infarct size ([4]; pretreatment with Tat-Atg5^K130R, then SUL infusion) | effect on autophagy induced by SUL (LC3-II/I ratio, cadaverine dye binding) [5] | effect on protection by CCPA (LDH release) (adult rat cardiomyocytes [6]; Tat protein 30 min before CCPA, then simulated ischemia) | LDH release under normoxic conditions (adult rat cardiomyocytes [6]; absence of CCPA, normoxia) | injury from sI/R (adult rat cardiomyocytes [6]; absence of CCPA, sI/R) | protection (HL-1 cells [7])
1 | B1 | effectively suppressed autophagy | suppressed autophagy in the second window of protection | eliminated the protective effects of CCPA after sI/R | abolished the cytoprotective effect of CCPA | – | – | – | – | – | – | – | – | – | –
2 | B2 | – | – | – | – | inhibits autophagy | suppressed autophagy | protection is lost | 42.0 | 30 % of the area at risk | potently suppressed autophagy induced by SUL | eliminated the protection by CCPA | did not increase LDH release | nor did it exacerbate injury from sI/R | –
3 | B3 | – | – | – | – | stimulates autophagy | – | – | – | – | – | – | – | – | protection in cell culture
